Data: US10464978B2, “Peptides and combination of peptides for use in immunotherapy against ovarian cancer and other cancers” (immatics biotechnologies GmbH, priority 2015, dated 2019)

Each substance was assayed against HLA-A*02:01 (Homo sapiens, UniProt P04439, D140Y/D185E/D98H/E176V/E277Q/G131W/G231S/I119V/I121R/I166T/I218V/L300P/L318F/N151K/N90K/P208A/P217A/Q86G/Q94H/R138H/R169H/T345S) (assay: MHC binding assay: UV-ligand exchange with beta2m ELISA (peptide exchange yield)). Details: binding to HLA-A*02:01.
Procedure, shortened: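 Peptide-MHC complexes formed by UV-ligand exchange, a UV-cleavable peptide being replaced by the candidate peptide. Exchange products diluted 100-fold, captured on streptavidin-coated plates for 1h at 37° C, then detected with 2 ug/ml HRP anti-β2m (1h, 37° C) and TMB, absorbance 450 nm; value is exchange yield.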

Substance | Peptide exchange (MHC class I binding score, peptide exchange yield)
193 (QLLDADGFLNV; listed as Homo sapiens) [compound 193] | “+++” (≥50 = +++)
194 (ALPLFVITV; listed as Homo sapiens) [compound 194] | “+++” (≥50 = +++)
195 (GLFADLLPRL; listed as Homo sapiens) [compound 195] | “+++” (≥50 = +++)
196 (YLYSVEIKL; listed as Homo sapiens) [compound 196] | “++++” (≥75% = ++++)
197 (ALGPEGGRV; listed as Homo sapiens) [compound 197] | “++” (≥20% = ++)
198 (KTINKVPTV; listed as Homo sapiens) [compound 198] | “+++” (≥50 = +++)
199 (ALQDVPLSSV; listed as Homo sapiens) [compound 199] | “+++” (≥50 = +++)
200 (LLFGSVQEV; listed as Homo sapiens) [compound 200] | “+++” (≥50 = +++)
201 (RLVDYLEGI; listed as Homo sapiens) [compound 201] | “+++” (≥50 = +++)
202 (ALLDQQGSRWTL; listed as Homo sapiens) [compound 202] | “+++” (≥50 = +++)
204 (KIAENVEEV; listed as Homo sapiens) [compound 204] | “++” (≥20% = ++)
205 (SLYPGTETMGL; listed as Homo sapiens) [compound 205] | “+++” (≥50 = +++)
206 (VLQEGKLQKLAQL; listed as Homo sapiens) [compound 206] | “+++” (≥50 = +++)
207 (GLTSTNAEV; listed as Homo sapiens) [compound 207] | “++” (≥20% = ++)
208 (KISPVTFSV; listed as Homo sapiens) [compound 208] | “+++” (≥50 = +++)
209 (KLIESKHEV; listed as Homo sapiens) [compound 209] | “++” (≥20% = ++)
210 (LLLNAVLTV; listed as Homo sapiens) [compound 210] | “++” (≥20% = ++)
211 (LLWPGAALL; listed as Homo sapiens) [compound 211] | “++” (≥20% = ++)
212 (ALWDQDNLSV; listed as Homo sapiens) [compound 212] | “++” (≥20% = ++)
214 (FLLDLDPLLL; listed as Homo sapiens) [compound 214] | “+++” (≥50 = +++)
215 (QLINHLHAV; listed as Homo sapiens) [compound 215] | “+++” (≥50 = +++)
216 (NLWEDPYYL; listed as Homo sapiens) [compound 216] | “+++” (≥50 = +++)
217 (ALIHPVSTV; listed as Homo sapiens) [compound 217] | “++” (≥20% = ++)

Substance | Peptide exchange (MHC class I binding score, peptide exchange yield)
218 (SALEELVNV; listed as Homo sapiens) [compound 218] | “++” (≥20% = ++)
219 (KLSDIGITV; listed as Homo sapiens) [compound 219] | “+++” (≥50 = +++)
220 (LLQKFVPEI; listed as Homo sapiens) [compound 220] | “++” (≥20% = ++)
221 (ALYEEGLLL; listed as Homo sapiens) [compound 221] | “++” (≥20% = ++)
222 (NLIENVQRL; listed as Homo sapiens) [compound 222] | “++” (≥20% = ++)
223 (ALLENIALYL; listed as Homo sapiens) [compound 223] | “+++” (≥50 = +++)
224 (TLIDAQWVL; listed as Homo sapiens) [compound 224] | “+++” (≥50 = +++)
225 (SLLKVLPAL; listed as Homo sapiens) [compound 225] | “+++” (≥50 = +++)
226 (MLYVVPIYL; listed as Homo sapiens) [compound 226] | “++” (≥20% = ++)
227 (ALMNTLLYL; listed as Homo sapiens) [compound 227] | “++” (≥20% = ++)
228 (AMQEYIAVV; listed as Homo sapiens) [compound 228] | “++” (≥20% = ++)
229 (RLPGPLGTV; listed as Homo sapiens) [compound 229] | “++” (≥20% = ++)
230 (ILVDWLVEV; listed as Homo sapiens) [compound 230] | “+” (≥10% = +)
231 (FLSPQQPPLLL; listed as Homo sapiens) [compound 231] | “++” (≥20% = ++)
232 (ALLEAQDVELYL; listed as Homo sapiens) [compound 232] | “++” (≥20% = ++)
233 (VLSETLYEL; listed as Homo sapiens) [compound 233] | “++” (≥20% = ++)
234 (ALMEDTGRQML; listed as Homo sapiens) [compound 234] | “++” (≥20% = ++)
235 (YLNDLHEVLL; listed as Homo sapiens) [compound 235] | “++++” (≥75% = ++++)
236 (GLLEAKVSL; listed as Homo sapiens) [compound 236] | “+++” (≥50 = +++)
237 (ALLEASGTLLL; listed as Homo sapiens) [compound 237] | “++++” (≥75% = ++++)
238 (YLISFQTHI; listed as Homo sapiens) [compound 238] | “+++” (≥50 = +++)
239 (AAFAGKLLSV; listed as Homo sapiens) [compound 239] | “+++” (≥50 = +++)
240 (ILLEQAFYL; listed as Homo sapiens) [compound 240] | “+++” (≥50 = +++)

Substance | Peptide exchange (MHC class I binding score, peptide exchange yield)
241 (SLVEVNPAYSV; listed as Homo sapiens) [compound 241] | “+++” (≥50 = +++)
242 (AIAYILQGV; listed as Homo sapiens) [compound 242] | “++” (≥20% = ++)
243 (LLLNELPSV; listed as Homo sapiens) [compound 243] | “+++” (≥50 = +++)
244 (SLFGGTEITI; listed as Homo sapiens) [compound 244] | “+++” (≥50 = +++)
245 (SMIDDLLGV; listed as Homo sapiens) [compound 245] | “+++” (≥50 = +++)
246 (LLWEVVSQL; listed as Homo sapiens) [compound 246] | “+++” (≥50 = +++)
247 (VLLPNDLLEKV; listed as Homo sapiens) [compound 247] | “+++” (≥50 = +++)
248 (FLFPNQYVDV; listed as Homo sapiens) [compound 248] | “+++” (≥50 = +++)
249 (LLDGFLVNV; listed as Homo sapiens) [compound 249] | “+++” (≥50 = +++)
250 (ALSEEGLLVYL; listed as Homo sapiens) [compound 250] | “+++” (≥50 = +++)
251 (ALYTGFSILV; listed as Homo sapiens) [compound 251] | “++” (≥20% = ++)
252 (LLIGTDVSL; listed as Homo sapiens) [compound 252] | “+++” (≥50 = +++)
253 (GLDAATATV; listed as Homo sapiens) [compound 253] | “++” (≥20% = ++)
254 (TLLAFIMEL; listed as Homo sapiens) [compound 254] | “+++” (≥50 = +++)
255 (VLASYNLTV; listed as Homo sapiens) [compound 255] | “+++” (≥50 = +++)
256 (FLPPEHTIVYI; listed as Homo sapiens) [compound 256] | “+++” (≥50 = +++)
257 (SIFSAFLSV; listed as Homo sapiens) [compound 257] | “+++” (≥50 = +++)
258 (ELAERVPAI; listed as Homo sapiens) [compound 258] | “++” (≥20% = ++)
261 (YVLEFLEEI; listed as Homo sapiens) [compound 261] | “++” (≥20% = ++)
262 (LLWGDLIWL; listed as Homo sapiens) [compound 262] | “+++” (≥50 = +++)
263 (LLVSNLDFGV; listed as Homo sapiens) [compound 263] | “+++” (≥50 = +++)
